{"source": "paper PMC8303780", "about": "“Mutational Analysis of Redβ Single Strand Annealing Protein: Roles of the 14 Lysine Residues in DNA Binding and Recombination In Vivo”", "test_in_all_cases": "fluorescence anisotropy", "conditions_in_all_cases": "Anisotropy: 50 mM Tris-HCl pH 7.5, 1 mM DTT, 0.1 mg/mL BSA, 10 nM FAM48, 23 °C (Kd per monomer), gel assay: 10 µM Redβ, 50 µM nt of each oligo, PBS, 37 °C", "key": {"[1]": {"target": "T1, Redβ WT (bacteriophage λ, UniProt P03698 1-261)", "T1 sequence": "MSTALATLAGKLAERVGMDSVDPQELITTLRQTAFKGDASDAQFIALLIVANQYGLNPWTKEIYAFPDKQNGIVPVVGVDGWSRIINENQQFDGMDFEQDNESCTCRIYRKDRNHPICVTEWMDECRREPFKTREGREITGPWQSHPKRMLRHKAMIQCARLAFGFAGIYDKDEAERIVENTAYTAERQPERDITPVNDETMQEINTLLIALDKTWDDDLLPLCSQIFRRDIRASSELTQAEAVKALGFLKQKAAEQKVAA"}, "[2]": {"target": "T2, Redβ K111A K111A (bacteriophage λ) (UniProt P03698)", "T2 sequence": "T1 sequence with K111A"}, "[3]": {"target": "T3, Redβ K132A K132A (bacteriophage λ) (UniProt P03698)", "T3 sequence": "T1 sequence with K132A"}, "[4]": {"target": "T4, Redβ K148A K148A (bacteriophage λ) (UniProt P03698)", "T4 sequence": "T1 sequence with K148A"}, "[5]": {"target": "T5, Redβ K172A K172A (bacteriophage λ) (UniProt P03698)", "T5 sequence": "T1 sequence with K172A"}, "[6]": {"target": "T6, Redβ K245A K245A (bacteriophage λ) (UniProt P03698)", "T6 sequence": "T1 sequence with K245A"}, "[7]": {"target": "T7, Redβ K36A K36A (bacteriophage λ) (UniProt P03698)", "T7 sequence": "T1 sequence with K36A"}, "[8]": {"target": "T8, Redβ K61A K61A (bacteriophage λ) (UniProt P03698)", "T8 sequence": "T1 sequence with K61A"}, "[9]": {"target": "T9, Redβ K69A K69A (bacteriophage λ) (UniProt P03698)", "T9 sequence": "T1 sequence with K69A"}}, "note": "Changes are numbered by the printed parent chain.", "data": [{"substance": "FAM48 48-mer ssDNA", "values": [{"measurement": "Kd", "setting": "[1]", "result": 110, "unit": "nM"}, {"measurement": "Kd", "setting": "[2]", "result": 2400, "unit": "nM"}, {"measurement": "Kd", "setting": "[3]", "result": 1770, "unit": "nM"}, {"measurement": "Kd", "setting": "[4]", "result": 14100, "unit": "nM"}, {"measurement": "Kd", "setting": "[5]", "result": 2600, "unit": "nM"}, {"measurement": "Kd", "setting": "[6]", "result": 160, "unit": "nM"}, {"measurement": "Kd", "setting": "[7]", "result": 530, "unit": "nM"}, {"measurement": "Kd", "setting": "[8]", "result": 390, "unit": "nM"}, {"measurement": "Kd", "setting": "[9]", "result": 410, "unit": "nM"}]}]}
